Assay results taken from publication PMC4114240.
“And” between values parts separate entries of the source, which are not always exact repeats. Equal entries are not always repeated.

Target: Xanthomonas campestris pv. campestris RpfB with an N-terminal hexahistidine tag (Xanthomonas campestris pv. campestris 8004)
Test: SEC

Substance: Xanthomonas campestris pv. campestris RpfB with an N-terminal hexahistidine tag (enzyme)
- stoichiometry N: 3 and 6
